Our source for the 活细胞比率 (CDC, 20%人血浆, 30min, 293T-hClaudin18.2细胞; 无抗体对照81.34%) values is patent publication CN114907482A.

Substitutions are numbered along the chain they refer to.

This assay deals with 人Claudin18.2 (human) (UniProt P56856). Nature of the assay: cell-based or functional assay.

B1: 鼠单抗1B10 (antibody, V domains shown)
VH: QVQLKESGPGLVAPSQSLSITCTVSGFSLTSYVINWVRQPPGKGLEWLGVIWTGGGTNYNSALKSRLSISKDTSKSQVFLKMNSLQTDDTARYYCARGAYYGNAMDYWGQGTSVTVSS
VL: DIVMTQSPSSLTVTAGEKVTMSCKSSQSLLNSGNQKNYLTWYQQKPGQPPKLLIYWAATRESGVPDRFTGSGSGTDFTLTISSVQAEDLAVYYCQNDYSYPFTFGSGTKLEIK
Consider B1, for which the 活细胞比率 (CDC, 20%人血浆, 30min, 293T-hClaudin18.2细胞; 无抗体对照81.34%) amounted to 34%.

B2: 鼠单抗1A6 (antibody, V domains shown)
VH: QVQLQQPGAELVKPGASVKLSCKASGYTFTSYWMQWVKQRPGQGLEWIGMTHPNSGGTNYNEKFKSKATLTVDKSSSTAYMQLSSLTSEDSAVYYCARLGRGNAMDYWGQGTSVTVSS
VL: B1 VL with A58S, E61K, A90T, V91I
In turn, B2 came in with a 活细胞比率 (CDC, 20%人血浆, 30min, 293T-hClaudin18.2细胞; 无抗体对照81.34%) of 3.94%.
